The values below come from article PMC6018003, “Quantifying the Interaction between Copper-Zinc Superoxide Dismutase (Sod1) and its Copper Chaperone (Ccs1)” (Journal of proteomics & bioinformatics, 2018).

The experiment addresses T1, H46R/H48Q/C146S Sod1 labeled with Alexa-546 at C57 (yeast, Alexa-546 C5-maleimide on C57).
T1 construct: two residue (Gly-His) extension left on the N-terminus after TEV cleavage; The vector with His tag and TEV site is stated for Ccs1; the purification with tag removal is told of both proteins; also called immature Sod1; E, E-Sod1^SH; source: E. coli BL21 (DE3) pLysS, purified (HisTrap HP Ni2+ column, TEV cleavage; Superdex 200 after labeling); not shown: His8, N-terminal, cleaved
T1 sequence (P00445 2-154 with H46R H48Q C146S, looked up): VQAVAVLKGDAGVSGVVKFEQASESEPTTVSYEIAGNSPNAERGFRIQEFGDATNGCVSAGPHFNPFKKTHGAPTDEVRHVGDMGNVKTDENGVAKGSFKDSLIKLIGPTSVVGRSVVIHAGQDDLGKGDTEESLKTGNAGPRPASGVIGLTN
The experiment in a line: other fluorescence titration; microplate, quenching of Alexa-546-labeled Sod1 on titration with Ccs1; Sod1 metal deficient and disulfide reduced (E, E-Sod1^SH); 20 mM Tris pH 7.5, 150 mM NaCl, 1 mM TCEP, 0.01% octyl glucoside and CHAPS. Conditions: both partners purified.

B1: Ccs1 lacking D1 (domain or fragment)
chain: IRGAGKPNSSAVAILETFQKYTIDQKKDTAVRGLARIVQVGENKTLFDITVNGVPEAGNYHASIHEKGDVSKGVESTGKVWHKFDEPIECFNESDLGKNLYSGKTFLSAPLPTWQLIGRSFVISKSLNHPENEPSSVKDYSFLGVIARSAGVWENNKQVCACTGKTVWEERKDALANNIK
B1: the dissociation constant (Kd) (usually a measure of binding affinity in units of concentration) was determined as 217 ± 38 nM.

B2: Ccs1 lacking D3 (domain or fragment)
chain: MTTNDTYEATYAIPMHCENCVNDIKACLKNVPGINSLNFDIEQQIMSVESSVAPSTIINTLRNCGKDAIIRGAGKPNSSAVAILETFQKYTIDQKKDTAVRGLARIVQVGENKTLFDITVNGVPEAGNYHASIHEKGDVSKGVESTGKVWHKFDEPIECFNESDLGKNLYSGKTFLSAPLPTWQLIGRSFVISKSLNHPENEPSSVKDYSFLGVIARSAGVW
On to B2, for which the Kd was 552 ± 105 nM.
